Columns and labels:
Test in all cases: fluorescence polarisation
[1] = target: Bovine full-length RIα C16A (bovine)
[2] = target: Bovine full-length RIα C37A (bovine)
[3] = target: Bovine full-length RIα Y19A (bovine)
[4] = target: Bovine full-length RIα, wild type (bovine, UniProt P00514 1-380)
[5] = target: Bovine full-length RIα H23A (bovine)

Chain of Bovine full-length RIα, wild type (P00514 whole entry): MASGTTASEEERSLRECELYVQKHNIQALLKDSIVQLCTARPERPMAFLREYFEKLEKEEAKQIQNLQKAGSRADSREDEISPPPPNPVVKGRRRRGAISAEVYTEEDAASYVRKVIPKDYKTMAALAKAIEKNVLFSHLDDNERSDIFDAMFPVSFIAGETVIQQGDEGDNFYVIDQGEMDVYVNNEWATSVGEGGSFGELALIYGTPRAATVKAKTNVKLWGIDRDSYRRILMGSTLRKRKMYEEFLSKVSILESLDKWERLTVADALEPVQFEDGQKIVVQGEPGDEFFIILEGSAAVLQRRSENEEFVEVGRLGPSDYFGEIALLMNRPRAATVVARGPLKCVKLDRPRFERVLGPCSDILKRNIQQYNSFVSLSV

- Kd [1]: 126 nM
- Kd [2]: 745 nM
- Kd [3]: 1330 nM
- Kd [4]: 48 nM
- Kd [5]: 198 nM
B1: D-AKAP2 AKB peptide (residues 623-650), last residue changed to Cys, fluorescently labeled (peptide)
chain: VQGNTDEAQEELAWKIAKMIVSDVMQQC
modifications: fluorescin-5-maleimide or tetramethylrhodamine-5-maleimide on the Cys that replaces the last residue

— PMC3090270 (Structure (London, England : 1993), 2010)
